Patent publication US20240024520A1 (UCB, published 2024)
Several values for one entry are separate records, joined by “and”; a condition that tells them apart may be missing. Identical values can stand only once. Like-named read-outs stand apart in the source and are kept apart here. Ends that are not written are not given here. * marks the point of attachment. Cam = NC(=O)C*

Assays:
[1] = molecular target: T1, human complement component C5 (human, UniProt P01031 19-673; P01031 678-1676); assay: SPR (Biacore), C5, mean of n=3
T1 construct: mature; Mature C5 is a disulphide-linked beta and alpha chain cut from one precursor; Terbium-labelled in the FRET assays, biotinylated in part of the phage ELISA; also called human C5; C5-Tb
T1 sequence (P01031 19-673 limits assumed, chain 1 of 2): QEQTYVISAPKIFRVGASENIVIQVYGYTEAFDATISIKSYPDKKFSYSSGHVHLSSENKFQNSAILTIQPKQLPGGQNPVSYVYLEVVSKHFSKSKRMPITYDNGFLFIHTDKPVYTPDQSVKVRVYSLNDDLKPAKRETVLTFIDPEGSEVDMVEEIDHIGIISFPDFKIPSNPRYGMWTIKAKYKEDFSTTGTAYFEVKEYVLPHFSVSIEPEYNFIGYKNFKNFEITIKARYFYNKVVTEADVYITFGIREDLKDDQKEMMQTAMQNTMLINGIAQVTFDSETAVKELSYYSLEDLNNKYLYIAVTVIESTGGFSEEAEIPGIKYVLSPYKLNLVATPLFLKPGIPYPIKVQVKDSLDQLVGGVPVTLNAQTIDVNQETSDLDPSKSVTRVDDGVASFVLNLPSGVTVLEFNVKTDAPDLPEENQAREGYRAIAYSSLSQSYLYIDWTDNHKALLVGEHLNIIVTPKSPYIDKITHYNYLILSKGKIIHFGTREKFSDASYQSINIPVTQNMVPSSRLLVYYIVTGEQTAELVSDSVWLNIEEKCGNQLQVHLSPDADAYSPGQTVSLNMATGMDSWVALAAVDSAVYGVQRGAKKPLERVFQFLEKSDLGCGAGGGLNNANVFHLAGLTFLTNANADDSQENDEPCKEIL
T1 sequence (P01031 678-1676 limits assumed, chain 2 of 2): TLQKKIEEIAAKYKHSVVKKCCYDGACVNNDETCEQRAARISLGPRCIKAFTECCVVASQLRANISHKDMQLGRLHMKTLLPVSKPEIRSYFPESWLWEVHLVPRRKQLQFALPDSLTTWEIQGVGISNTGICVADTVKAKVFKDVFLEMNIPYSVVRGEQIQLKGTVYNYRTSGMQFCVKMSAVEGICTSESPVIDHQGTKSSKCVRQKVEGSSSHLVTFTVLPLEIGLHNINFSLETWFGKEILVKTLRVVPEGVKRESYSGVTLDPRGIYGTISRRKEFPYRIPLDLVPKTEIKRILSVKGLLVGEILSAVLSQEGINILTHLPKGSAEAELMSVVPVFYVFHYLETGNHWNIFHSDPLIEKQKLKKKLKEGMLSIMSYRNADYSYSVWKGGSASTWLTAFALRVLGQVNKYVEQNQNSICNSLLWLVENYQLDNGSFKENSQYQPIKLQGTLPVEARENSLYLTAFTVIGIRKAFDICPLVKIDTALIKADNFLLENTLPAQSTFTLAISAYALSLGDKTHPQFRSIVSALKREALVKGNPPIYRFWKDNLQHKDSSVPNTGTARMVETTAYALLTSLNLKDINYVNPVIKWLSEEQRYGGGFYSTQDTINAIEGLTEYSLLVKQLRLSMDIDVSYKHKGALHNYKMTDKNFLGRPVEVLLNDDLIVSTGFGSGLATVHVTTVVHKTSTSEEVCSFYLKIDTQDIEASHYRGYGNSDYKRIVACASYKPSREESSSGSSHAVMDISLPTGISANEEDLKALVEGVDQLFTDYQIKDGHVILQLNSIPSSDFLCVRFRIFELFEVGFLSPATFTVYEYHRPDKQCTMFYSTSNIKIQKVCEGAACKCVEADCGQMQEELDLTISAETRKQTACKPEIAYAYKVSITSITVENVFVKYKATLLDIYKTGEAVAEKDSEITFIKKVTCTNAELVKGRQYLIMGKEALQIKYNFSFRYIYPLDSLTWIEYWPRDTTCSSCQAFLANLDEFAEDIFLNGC

[2] = molecular target: T1, human complement component C5; assay: cell-based or functional assay
[3] = molecular target: T1, human complement component C5; assay: SPR, cysteines reduced and capped with iodoacetamide; K92, cysteines reduced and capped with iodoacetamide
human serum albumin = molecular target: T2, human serum albumin (human, UniProt P02768 25-609); assay: monoclonal phage ELISA
T2 construct: also called HSA

[4] = molecular target: T1, human complement component C5; assay: phage ELISA, OD 630 nm, anti-M13 HRP; C5 coated directly and biotinylated C5 captured on streptavidin
[5] = molecular target: T3, human complement component C3 (human, UniProt P01024 23-667; P01024 672-1663); assay: SPR (Biacore), C3, mean of n=3
T3 construct: also called biotinylated C3
T3 sequence (P01024 23-667 limits assumed, chain 1 of 2): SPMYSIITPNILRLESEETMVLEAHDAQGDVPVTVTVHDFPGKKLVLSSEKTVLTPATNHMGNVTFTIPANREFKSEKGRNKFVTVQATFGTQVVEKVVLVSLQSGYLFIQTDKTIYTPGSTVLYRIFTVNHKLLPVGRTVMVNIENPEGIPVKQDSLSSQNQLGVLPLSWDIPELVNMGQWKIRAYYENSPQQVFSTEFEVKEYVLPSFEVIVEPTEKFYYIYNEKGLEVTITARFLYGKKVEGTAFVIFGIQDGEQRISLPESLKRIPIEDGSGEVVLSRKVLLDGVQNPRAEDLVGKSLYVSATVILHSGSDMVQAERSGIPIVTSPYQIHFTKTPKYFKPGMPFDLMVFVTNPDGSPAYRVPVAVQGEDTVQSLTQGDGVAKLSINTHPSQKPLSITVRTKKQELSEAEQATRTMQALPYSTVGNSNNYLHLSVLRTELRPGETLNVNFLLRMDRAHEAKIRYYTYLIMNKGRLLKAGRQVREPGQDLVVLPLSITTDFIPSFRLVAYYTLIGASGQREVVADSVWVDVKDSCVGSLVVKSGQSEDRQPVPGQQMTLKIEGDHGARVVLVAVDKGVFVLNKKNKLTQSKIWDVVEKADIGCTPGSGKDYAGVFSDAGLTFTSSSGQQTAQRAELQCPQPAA
T3 sequence (P01024 672-1663 limits assumed, chain 2 of 2): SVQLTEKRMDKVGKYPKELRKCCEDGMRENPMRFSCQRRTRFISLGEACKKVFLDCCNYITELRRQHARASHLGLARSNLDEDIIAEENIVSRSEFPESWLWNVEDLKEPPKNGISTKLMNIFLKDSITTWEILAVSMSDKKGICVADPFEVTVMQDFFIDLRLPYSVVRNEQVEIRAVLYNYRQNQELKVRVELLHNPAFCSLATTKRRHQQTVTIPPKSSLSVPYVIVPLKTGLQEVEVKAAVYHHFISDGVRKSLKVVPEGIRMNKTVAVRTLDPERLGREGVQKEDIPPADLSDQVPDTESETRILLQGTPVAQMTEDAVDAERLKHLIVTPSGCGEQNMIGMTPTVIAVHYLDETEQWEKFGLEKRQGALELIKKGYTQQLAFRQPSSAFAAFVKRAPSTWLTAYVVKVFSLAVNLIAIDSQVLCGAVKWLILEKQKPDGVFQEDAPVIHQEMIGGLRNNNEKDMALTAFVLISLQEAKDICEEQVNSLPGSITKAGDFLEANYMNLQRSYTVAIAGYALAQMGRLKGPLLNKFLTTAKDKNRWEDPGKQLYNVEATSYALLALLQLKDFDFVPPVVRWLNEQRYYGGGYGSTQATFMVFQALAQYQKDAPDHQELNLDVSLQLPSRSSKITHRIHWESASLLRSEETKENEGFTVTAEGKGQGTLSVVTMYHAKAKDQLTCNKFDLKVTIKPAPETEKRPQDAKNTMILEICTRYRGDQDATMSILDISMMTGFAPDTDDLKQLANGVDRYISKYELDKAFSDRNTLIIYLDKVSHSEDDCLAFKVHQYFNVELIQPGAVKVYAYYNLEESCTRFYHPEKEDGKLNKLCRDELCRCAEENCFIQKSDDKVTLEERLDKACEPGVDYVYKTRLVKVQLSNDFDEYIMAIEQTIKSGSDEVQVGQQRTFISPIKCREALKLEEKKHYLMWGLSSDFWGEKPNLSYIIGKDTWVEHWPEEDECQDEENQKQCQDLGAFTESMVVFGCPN

[6] = molecular target: T1, human complement component C5; assay: cell-based or functional assay; remark: listed apart in the source
[7] = molecular target: T1, human complement component C5; assay: SPR multi-cycle kinetics, human C5 immobilised, mean of n=3
[8] = molecular target: T1, human complement component C5; assay: cell-based or functional assay; remark: listed apart in the source
[9] = molecular target: T1, human complement component C5; assay: SPR single-cycle kinetics (Biacore 8K), C5 amine-coupled to a CM5 chip
ovalbumin = molecular target: T4, ovalbumin (UniProt P01012 2-386); assay: counter screen
T4 sequence (looked up): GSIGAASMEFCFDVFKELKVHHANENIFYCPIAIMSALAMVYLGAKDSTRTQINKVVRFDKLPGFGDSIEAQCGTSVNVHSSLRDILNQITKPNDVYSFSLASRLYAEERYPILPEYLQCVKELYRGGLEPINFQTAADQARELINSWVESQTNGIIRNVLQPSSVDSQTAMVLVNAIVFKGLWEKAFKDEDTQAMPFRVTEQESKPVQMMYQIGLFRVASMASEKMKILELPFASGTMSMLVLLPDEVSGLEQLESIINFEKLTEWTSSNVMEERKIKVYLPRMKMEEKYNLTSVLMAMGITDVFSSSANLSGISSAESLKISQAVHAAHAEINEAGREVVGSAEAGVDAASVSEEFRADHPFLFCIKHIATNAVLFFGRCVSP

[10] = molecular target: T3, human complement component C3; assay: counter screen
[11] = molecular target: T3, human complement component C3; assay: phage ELISA, OD 630 nm, anti-M13 HRP; C3 coated directly and biotinylated C3 captured on streptavidin
[12] = molecular target: T1, human complement component C5; assay: cell-based or functional assay; remark: listed apart in the source
[13] = molecular target: T1, human complement component C5; assay: SPR, cysteines reduced and capped with iodoacetamide; K57, cysteines reduced and capped with iodoacetamide
[14] = molecular target: T1, human complement component C5; assay: cell-based or functional assay; remark: listed apart in the source
[15] = molecular target: T1, human complement component C5
[16] = molecular target: T1, human complement component C5; assay: SPR single-cycle kinetics
mouse C5 = molecular target: T5, mouse C5 (mouse, UniProt P06684 19-674; P06684 679-1680); assay: SPR single-cycle kinetics, n=1
T5 construct: mature; also called mouse C5 protein
T5 sequence (P06684 19-674 limits assumed, chain 1 of 2): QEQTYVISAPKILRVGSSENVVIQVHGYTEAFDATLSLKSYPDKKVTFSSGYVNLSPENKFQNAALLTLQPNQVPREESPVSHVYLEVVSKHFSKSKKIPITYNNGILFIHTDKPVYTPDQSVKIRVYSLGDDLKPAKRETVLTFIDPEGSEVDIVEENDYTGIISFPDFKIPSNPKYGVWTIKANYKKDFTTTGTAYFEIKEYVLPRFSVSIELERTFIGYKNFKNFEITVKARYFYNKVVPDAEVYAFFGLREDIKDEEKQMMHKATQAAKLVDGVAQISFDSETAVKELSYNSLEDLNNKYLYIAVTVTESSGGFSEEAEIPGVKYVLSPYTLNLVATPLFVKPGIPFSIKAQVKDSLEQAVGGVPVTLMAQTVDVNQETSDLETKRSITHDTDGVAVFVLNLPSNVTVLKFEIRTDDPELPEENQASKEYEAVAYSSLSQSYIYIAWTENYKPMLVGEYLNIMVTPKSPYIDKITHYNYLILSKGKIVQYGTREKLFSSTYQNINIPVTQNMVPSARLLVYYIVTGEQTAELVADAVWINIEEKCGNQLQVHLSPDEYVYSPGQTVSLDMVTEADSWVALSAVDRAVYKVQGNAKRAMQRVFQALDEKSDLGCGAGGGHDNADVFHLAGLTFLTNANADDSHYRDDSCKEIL
T5 sequence (P06684 679-1680 limits assumed, chain 2 of 2): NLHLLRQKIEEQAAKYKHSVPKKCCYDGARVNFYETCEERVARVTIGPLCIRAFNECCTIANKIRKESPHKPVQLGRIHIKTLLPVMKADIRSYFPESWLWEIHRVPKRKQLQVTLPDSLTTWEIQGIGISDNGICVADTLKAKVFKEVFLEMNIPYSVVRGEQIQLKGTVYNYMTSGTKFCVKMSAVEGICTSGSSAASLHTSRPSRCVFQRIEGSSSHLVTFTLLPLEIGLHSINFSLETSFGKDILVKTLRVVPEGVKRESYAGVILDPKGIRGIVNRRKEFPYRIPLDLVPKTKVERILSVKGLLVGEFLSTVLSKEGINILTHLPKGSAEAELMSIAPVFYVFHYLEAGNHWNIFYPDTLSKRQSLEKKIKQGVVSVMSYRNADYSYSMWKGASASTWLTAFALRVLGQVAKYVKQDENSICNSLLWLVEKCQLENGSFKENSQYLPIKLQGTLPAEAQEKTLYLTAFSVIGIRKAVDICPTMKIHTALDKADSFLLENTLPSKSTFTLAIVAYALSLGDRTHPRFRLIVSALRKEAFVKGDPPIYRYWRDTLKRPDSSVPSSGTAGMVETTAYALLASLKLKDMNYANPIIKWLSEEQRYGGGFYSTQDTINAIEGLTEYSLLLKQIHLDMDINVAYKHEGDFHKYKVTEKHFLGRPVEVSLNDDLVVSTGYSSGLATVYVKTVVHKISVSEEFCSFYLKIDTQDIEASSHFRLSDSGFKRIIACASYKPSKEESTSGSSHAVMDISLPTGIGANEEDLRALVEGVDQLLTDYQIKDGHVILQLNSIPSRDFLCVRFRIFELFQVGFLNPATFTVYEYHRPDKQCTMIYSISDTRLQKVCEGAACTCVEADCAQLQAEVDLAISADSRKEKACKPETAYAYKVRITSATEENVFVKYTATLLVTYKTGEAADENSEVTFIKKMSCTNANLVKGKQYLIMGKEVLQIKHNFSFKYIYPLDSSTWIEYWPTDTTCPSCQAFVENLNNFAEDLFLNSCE

rabbit C5 = molecular target: T6, rabbit C5 (rabbit); assay: SPR single-cycle kinetics, n=1
T6 construct: mature; also called rabbit C5 protein

[17] = molecular target: T1, human complement component C5; remark: listed apart in the source
[18] = molecular target: T1, human complement component C5; assay: cell-based or functional assay; remark: listed apart in the source
[19] = molecular target: T1, human complement component C5; assay: cell-based or functional assay; remark: listed apart in the source
[20] = molecular target: T1, human complement component C5; assay: cell-based or functional assay; remark: listed apart in the source
[21] = molecular target: T1, human complement component C5; assay: cell-based or functional assay; remark: listed apart in the source
[22] = molecular target: T1, human complement component C5; assay: cell-based or functional assay; remark: listed apart in the source
[23] = molecular target: T1, human complement component C5; assay: cell-based or functional assay; remark: listed apart in the source
[24] = molecular target: T1, human complement component C5; assay: SPR single-cycle kinetics, human C5, n=1

B1: hC3nb1-K57 loop 2 delta proline with C-terminal single-chain Fc tag (bispecific antibody, V domains shown, not shown: a dimerising Fc or GST)
VH: WFRQASGGGSGCPPGYKSGVDCSPGSECKWGCYAVDGRRYGGYGADSGVSGGGSKEREFVATINRSGGRTYYADSVKGRFTISRDNGKNMVYLQMHSLKPEDTAIYYCAAGTGWSPQTDNEYNYWGQGTQVTVSS
notes: also called hC3Nb1Loop2ΔP
In the case of B1, the Kd [1] is reported as 0.864 nM and the “classical pathway C5b neoepitope ELISA; IC50 (read off the curve)” value [2] is reported as ~20 nM.

B2: K92, reduced and cysteines capped with iodoacetamide (peptide)
peptide: TC(Cam)PEGWSEC(Cam)GVAIYGYEC(Cam)GRWGC(Cam)GHFLNSGPNISPYVST
notes: also called K92 (loss of disulphide bonds)
Work on B2 yielded a Kd [3] of 2000 nM.

B3: ultralong CDR-H3 of SEQ ID NO: 498 displayed on M13 phage (other)
chain: TTVHQQTHQDQTCPDGYTRTNYYCRRDGCGSWCNGAERQQPCIRGPCCCDLTYRTAYEYHVET
notes: not shown: poly-histidine, c-myc tag, M13 pIII
B3: binds (human serum albumin).

B4: hC3nb1 VHH displayed on M13 phage (VHH)
VHH: QVQLVETGGGLVQAGGSLRLSCAASGSIFSLNAMGWFRQAPGKEREFVATINRSGGRTYYADSVKGRFTISRDNGKNMVYLQMHSLKPEDTAIYYCAAGTGWSPQTDNEYNYWGQGTQVTVSS
notes: as for B3
B4: no binding [4].

B5: hC3nb1-K57 C-term with C-terminal single-chain Fc tag (bispecific antibody, V domains shown, not shown: a dimerising Fc or GST)
VH: QVQLVETGGGLVQAGGSLRLSCAASGSIFSLNAMGWFRQAPGKEREFVATINRSGGRTYYADSVKGRFTISRDNGKNMVYLQMHSLKPEDTAIYYCAAGTGWSPQTDNEYNYWGQGTQVTVSS
notes: also called hC3Nb1 C-Term
Binder B5 has a Kd [5] of 0.302 nM and a Kd [1] of 0.271 nM.

For TCPEGWSECGVAIYGYECGRWGCGHFLNSGPNISPYVST (also called chemical K92) [K92chemFE knob domain peptide], the “alternative pathway complement ELISA (C5b deposition); IC50 (read off the curve)” value [6] was ~70 nM, the Kd [7] was 0.411 nM and the koff [7] was 0.000101 s⁻¹. The kon [7] was 283000 M⁻¹ s⁻¹ and the “alternative pathway haemolysis assay; IC50 (read off the curve)” value [8] was ~200 nM.

GSKSCREGYIDGGGCCLPGSCRGCACSYYDWLKCPRDCRGTSEEENLYFQ (Recombinant, cut out by TEV protease) [K60 knob domain peptide cleaved from the 645 Fab]: no binding [9]; no binding (ovalbumin); no binding [10].

B6: hC3nb1-K149 (K149 ultralong CDR-H3 in framework 3 of hC3nb1) displayed on M13 phage (bispecific antibody)
VHH: QVQLVETGGGLVQAGGSLRLSCAASGSIFSLNAMGWFRQAPGKEREFVATINRSGGRTYYADSVKGRFTISRDNGTSVLQSTKPQKSCPDGFSYRSWDDFCCPMVGRCLAPRNTYTTEFTIEAKNMVYLQMHSLKPEDTAIYYCAAGTGWSPQTDNEYNYWGQGTQVTVSS
notes: also called hC3nb1-K149 CDR-H3; not shown: poly-histidine, c-myc tag, M13 pIII
B6: no binding [4]; no binding [11].

B7: hC3nb1-K57 loop 1 with C-terminal single-chain Fc tag (bispecific antibody, not shown: a dimerising Fc or GST)
VHH: QVQLVETGGGLVQASGGGSGCPPGYKSGVDCSPGSECKWGCYAVDGRRYGGYGADSGVSGGGSGSLRLSCAASGSIFSLNAMGWFRQAPGKEREFVATINRSGGRTYYADSVKGRFTISRDNGKNMVYLQMHSLKPEDTAIYYCAAGTGWSPQTDNEYNYWGQGTQVTVSS
B7 was tested, and the “alternative pathway C5b neoepitope ELISA; IC50 (read off the curve)” value [12] was ~200 nM and the “classical pathway C5b neoepitope ELISA; IC50 (read off the curve)” value [2] was ~50 nM.

B8: K57, reduced and cysteines capped with iodoacetamide (peptide)
peptide: GC(Cam)PPGYKSGVDC(Cam)SPGSEC(Cam)KWGC(Cam)YAVDGRRYGGYGADSGVGS
notes: also called K57 (loss of disulphide bonds)
Binder B8 has a Kd [13] of 76 nM.

B9: K92 knob domain peptide cleaved from the 645 Fab (peptide)
peptide: GSGSVTCPEGWSECGVAIYGYECGRWGCGHFLNSGPNISPYVTTGSENLYFQ
notes: Recombinant, cut out by TEV protease
With B9 the “Inhibition of alternative pathway mediated C5a release, average Emax” value [14] was 43.3%, the “Inhibition of alternative pathway mediated C5a release, geomean IC50” value [14] was 43.3 nM and the Kd [15] was < 0.85 nM. The koff [15] was 0.000113 s⁻¹, the kon [15] was 124000 M⁻¹ s⁻¹ and the Kd [16] was < 40 nM. The binding result (ovalbumin) was “no binding”, the binding result [10] was “no binding” and the Kd (mouse C5) was 63.1 nM. For the same binder, the koff (mouse C5) was 0.00487 s⁻¹, the kon (mouse C5) was 77200 M⁻¹ s⁻¹ and the Kd (rabbit C5) was 76.6 nM. For the same binder, the koff (rabbit C5) was 0.00466 s⁻¹, the kon (rabbit C5) was 60800 M⁻¹ s⁻¹ and the IC50 [17] was 7.6 nM and 7.4 nM and 7.3 nM. The Ki [17] was 3.7 nM, the “Inhibition of alternative pathway mediated bacterial lysis, average Emax” value [18] was 91% and the “Inhibition of alternative pathway mediated bacterial lysis, geomean IC50” value [18] was 2460 nM.

B10: K8 knob domain peptide cleaved from the 645 Fab (peptide)
peptide: GSVCPDGFNWGYGCAAGSSRFCTRHDWCCYDERADSHTYGFCTGNRVENLYFQ
notes: as for B9
B10 was tested, and the “Inhibition of classical pathway mediated bacterial lysis, geomean IC50” value [19] was 16900 nM, the “Inhibition of alternative pathway mediated C5a release, average Emax” value [14] was 71.8% and the “Inhibition of alternative pathway mediated C5a release, geomean IC50” value [14] was 150 nM. It also gave a Kd [15] of 17.3 nM, a koff [15] of 0.000357 s⁻¹ and a kon [15] of 26100 M⁻¹ s⁻¹. The “Inhibition of classical pathway mediated C5a release, geomean IC50” value [20] was 9.9 nM, the Kd [16] was < 40 nM and the binding result (ovalbumin) was “no binding”. For the same binder, the binding result [10] was “no binding”, the Kd (mouse C5) was 4.69 nM and the koff (mouse C5) was 0.00019 s⁻¹. It also gave a kon (mouse C5) of 40400 M⁻¹ s⁻¹, a Kd (rabbit C5) of 9.12 nM and a koff (rabbit C5) of 0.000296 s⁻¹. The kon (rabbit C5) was 32400 M⁻¹ s⁻¹, the IC50 [17] was 20.7 nM and 31.2 nM and 26.1 nM and 25.6 nM and the Ki [17] was 12.8 nM. The “Inhibition of alternative pathway mediated bacterial lysis, average Emax” value [18] was 98.1% and the “Inhibition of alternative pathway mediated bacterial lysis, geomean IC50” value [18] was 25800 nM.

B11: K8 knob domain peptide, chemically synthesised, free energy method (peptide)
peptide: VCPDGFNWGYGCAAGSSRFCTRHDWCCYDERADSHTYGFCTGNRV
modifications: disulfide (positions not given here); not fully specified
notes: Disulphides formed in glutathione redox buffer; also called K8chemFE; K8chem
In the case of B11, the “Classical pathway C5b deposition ELISA, average Emax” value [21] is reported as 47.3%, the “Classical pathway C5b deposition ELISA, geomean IC50” value [21] is reported as 9.8 nM and the “Alternative pathway C5b neoepitope ELISA, average Emax” value [22] is reported as 91.5%. For the same binder, the “Alternative pathway C5b neoepitope ELISA, geomean IC50” value [22] was 46.1 nM, the “alternative pathway complement ELISA (C5b deposition); IC50 (read off the curve)” value [6] was ~80 nM and the “classical pathway complement ELISA (C5b deposition); IC50 (read off the curve)” value [23] was ~30 nM. It also gave a Kd [7] of 5.46 nM, a koff [7] of 0.000385 s⁻¹ and a kon [7] of 70500 M⁻¹ s⁻¹. It also gave a Kd [24] of 12.1 nM, a koff [24] of 0.000397 s⁻¹ and a kon [24] of 32900 M⁻¹ s⁻¹.
